From doi:10.1101/484048
Read-outs that look alike come from different tables or passages of the source.

Key:
[1] = target: human methylmalonyl-CoA epimerase p.Arg143Cys variant (human) (UniProt Q96PE7); assay: crystal structure
[2] = target: human methylmalonyl-CoA epimerase, wild type (human) (UniProt Q96PE7)
[3] = target: human methylmalonyl-CoA epimerase, wild type (human) (UniProt Q96PE7); assay: crystal structure

Row | stoichiometry N [1] | stoichiometry N [2] | stoichiometry N [3] | Substance
1 | 2 | – | – | human methylmalonyl-CoA epimerase p.Arg143Cys variant (from UniProt Q96PE7 45-176) (enzyme)
2 | – | 2 | 2 | human methylmalonyl-CoA epimerase, wild type (from UniProt Q96PE7 45-176) (enzyme)
